Test results: US20030134799A1
Read-outs that look alike come from different tables or passages of the source.

Assays:
[1] = target: NMDA receptor of well-washed rat forebrain membranes (rat) (UniProt Q9R1M7); assay: displacement of [3H]ifenprodil, polyamine-sensitive site
[2] = target: NMDA receptor of well-washed rat forebrain membranes (rat) (UniProt Q9R1M7); assay: cell-based or functional assay
[3] = target: NMDA receptor of primary cultures of rat cerebellar granule cells (rat); assay: cell-based or functional assay
[4] = target: NMDA receptor of well-washed rat forebrain membranes (rat) (UniProt Q9R1M7)

Chain of NMDA receptor of well-washed rat forebrain membranes (rat) (Q9R1M7 24-1135): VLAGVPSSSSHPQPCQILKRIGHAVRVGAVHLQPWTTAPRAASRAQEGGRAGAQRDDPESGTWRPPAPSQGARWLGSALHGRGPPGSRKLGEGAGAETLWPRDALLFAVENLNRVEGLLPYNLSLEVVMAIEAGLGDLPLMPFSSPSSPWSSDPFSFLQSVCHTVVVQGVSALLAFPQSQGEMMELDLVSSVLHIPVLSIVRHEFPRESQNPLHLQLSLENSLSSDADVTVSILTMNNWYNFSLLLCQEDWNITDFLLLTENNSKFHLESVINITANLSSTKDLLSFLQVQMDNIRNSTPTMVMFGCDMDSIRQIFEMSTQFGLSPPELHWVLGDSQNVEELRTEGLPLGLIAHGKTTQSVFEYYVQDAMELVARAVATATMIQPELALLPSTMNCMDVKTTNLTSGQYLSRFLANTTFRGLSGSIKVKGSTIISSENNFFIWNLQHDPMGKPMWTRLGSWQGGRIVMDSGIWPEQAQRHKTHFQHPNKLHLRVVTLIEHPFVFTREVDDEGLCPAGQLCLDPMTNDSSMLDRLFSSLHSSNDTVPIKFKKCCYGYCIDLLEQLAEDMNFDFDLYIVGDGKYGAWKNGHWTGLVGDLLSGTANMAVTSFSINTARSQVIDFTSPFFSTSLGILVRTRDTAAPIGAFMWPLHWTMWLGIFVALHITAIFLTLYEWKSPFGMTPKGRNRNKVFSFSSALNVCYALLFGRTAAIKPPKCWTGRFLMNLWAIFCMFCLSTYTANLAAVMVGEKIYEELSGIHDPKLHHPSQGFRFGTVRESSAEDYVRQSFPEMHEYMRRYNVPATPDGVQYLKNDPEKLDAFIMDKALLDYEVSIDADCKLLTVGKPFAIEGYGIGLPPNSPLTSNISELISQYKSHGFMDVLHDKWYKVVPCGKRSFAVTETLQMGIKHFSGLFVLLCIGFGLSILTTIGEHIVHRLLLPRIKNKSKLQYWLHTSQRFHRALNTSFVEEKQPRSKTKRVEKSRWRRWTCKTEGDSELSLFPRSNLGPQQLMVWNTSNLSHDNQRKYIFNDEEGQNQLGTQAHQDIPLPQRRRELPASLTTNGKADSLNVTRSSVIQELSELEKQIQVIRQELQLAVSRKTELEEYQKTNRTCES

Conantokin-G (peptide) gave an IC50 [1] of over 5 µM, a % Inh, spermine-enhanced [3H]MK-801 binding [2] of 100% and a % Sti, [3H]MK-801 binding without spermine [2] of 0%. It also gave an IC50, antagonism of Gly-stimulated [3H]MK-801 binding, representative experiment [2] of 835 nM, an IC50, inhibition of spermine-enhanced [3H]MK-801 binding, typical experiment [2] of 275 nM and an IC (µM), inhibition of spermine-enhanced [3H]MK-801 binding [2] of 0.16 µM. It also gave an IC50, inhibition of NMDA-stimulated increases in cyclic GMP formation [3] of 300 nM and an IC50 [4] of over 5 µM.
